Data as given in patent publication US20240392020A1 (JIANGSU HENGRUI PHARMACEUTICALS, published 2024).
Where a chain is given by its changes, count along the chain named. One block for each binder: values may come before it.

Assays:
hP40 = target: T1, hP40 (human, UniProt P29460 23-328); assay: ELISA
T1 construct: bought
T1 sequence (looked up): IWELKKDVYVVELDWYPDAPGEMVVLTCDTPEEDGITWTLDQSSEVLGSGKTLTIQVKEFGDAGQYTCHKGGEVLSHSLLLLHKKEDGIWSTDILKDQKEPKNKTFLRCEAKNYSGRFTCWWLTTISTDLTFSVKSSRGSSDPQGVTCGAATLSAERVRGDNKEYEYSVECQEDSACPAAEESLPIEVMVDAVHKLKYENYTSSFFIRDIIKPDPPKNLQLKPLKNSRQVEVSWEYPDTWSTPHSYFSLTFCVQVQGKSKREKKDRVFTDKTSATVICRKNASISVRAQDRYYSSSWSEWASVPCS
Method: (§1) For an antibody targeting a soluble protein, the binding activity of the antibody against the soluble protein was detected by ELISA. […] After the blocking was completed, the blocking solution was discarded; and the plate was washed 3 times with a PBST buffer (pH 7.4, PBS containing 0.1% tween-20). 100 μL of the antibody solution diluted in a gradient was added to each well, and the mixture was incubated at 37° C. for 1 h. After the incubation was completed, the plate was washed 3 times with PBST. […] The plate was washed 3 times with PBST. […] The reaction was stopped by adding 50 μL of 1 M H₂SO₄ to each well. The absorbance values at 450 nm were read on a microplate reader, the binding curves of the antibodies to an antigen were fitted with software, and the EC₅₀ values were calculated.

hNGF = target: T2, hNGF (human, UniProt P01138 122-241, limits assumed); assay: ELISA
T2 construct: bought
Method: as §1

hB7H3 antigen protein = target: T3, hB7H3 antigen protein (human, UniProt Q5ZPR3 29-461); assay: SPR Biacore T200, antibody captured on Protein A chip
T3 construct: prepared in the laboratory
T3 sequence: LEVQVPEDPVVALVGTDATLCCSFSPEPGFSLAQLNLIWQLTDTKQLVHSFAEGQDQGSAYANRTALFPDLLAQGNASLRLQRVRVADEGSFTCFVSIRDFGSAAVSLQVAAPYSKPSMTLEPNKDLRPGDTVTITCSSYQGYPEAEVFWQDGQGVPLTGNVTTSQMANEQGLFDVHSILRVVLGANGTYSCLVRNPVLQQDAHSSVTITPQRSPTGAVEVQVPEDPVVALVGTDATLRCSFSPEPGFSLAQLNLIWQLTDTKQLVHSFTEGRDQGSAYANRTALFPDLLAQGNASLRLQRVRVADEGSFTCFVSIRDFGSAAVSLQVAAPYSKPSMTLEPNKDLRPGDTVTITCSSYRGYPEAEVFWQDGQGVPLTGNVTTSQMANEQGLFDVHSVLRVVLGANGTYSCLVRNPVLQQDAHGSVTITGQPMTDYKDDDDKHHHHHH
Method: The affinity of a test antibody for an antigen protein was determined by using a Biacore T200 (GE) instrument. […] The data obtained from the experiment was fitted with BIAevaluation version 4.1, GE software using a (1:1) Langmuir model to obtain affinity values.

[1] = target: T4, B7H3 on the recombinant cell line CT26-B7H3 (UniProt Q5ZPR3 29-534, limits assumed); assay: FACS, CT26-B7H3 cells
T4 construct: whole, on cells
T4 sequence (looked up): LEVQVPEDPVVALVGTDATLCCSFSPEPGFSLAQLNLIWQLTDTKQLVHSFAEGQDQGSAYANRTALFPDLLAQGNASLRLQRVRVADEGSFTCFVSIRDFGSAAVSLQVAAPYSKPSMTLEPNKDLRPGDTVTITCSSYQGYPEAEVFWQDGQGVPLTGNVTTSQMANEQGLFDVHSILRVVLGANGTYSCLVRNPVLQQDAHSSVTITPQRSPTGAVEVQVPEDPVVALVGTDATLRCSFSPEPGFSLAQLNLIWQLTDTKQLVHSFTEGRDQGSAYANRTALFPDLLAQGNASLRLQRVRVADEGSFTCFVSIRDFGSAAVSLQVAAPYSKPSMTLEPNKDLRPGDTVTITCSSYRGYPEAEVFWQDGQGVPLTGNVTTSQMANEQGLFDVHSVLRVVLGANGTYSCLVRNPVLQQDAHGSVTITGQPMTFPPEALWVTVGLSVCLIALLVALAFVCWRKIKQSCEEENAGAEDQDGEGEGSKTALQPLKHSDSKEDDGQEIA

hTSLP = target: T5, hTSLP (human, UniProt Q969D9 29-159); assay: ELISA
T5 construct: bought
Method: (§2) For an antibody targeting a soluble protein, the binding activity of the antibody against the soluble protein was detected by ELISA. […] After the blocking was completed, the blocking solution was discarded; and the plate was washed 3 times with a PBST buffer (pH 7.4, PBS containing 0.1% tween-20). 100 μL of the antibody solution diluted in a gradient was added to each well, and the mixture was incubated at 37° C. for 1 h. After the incubation was completed, the plate was washed 3 times with PBST.

hIL-5 = target: T6, hIL-5 (human, UniProt P05113 20-134); assay: ELISA
T6 construct: bought
Method: as §2

T2 sequence (P01138 122-241 limits assumed): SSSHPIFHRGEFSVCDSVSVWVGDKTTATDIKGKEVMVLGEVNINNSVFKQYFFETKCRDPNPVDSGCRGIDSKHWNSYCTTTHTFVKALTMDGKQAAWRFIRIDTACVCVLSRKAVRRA

EC50 (hP40): 0.02 nM
B1: U3 (antibody)
heavy: not shown
light: DIQMTQSPSSLSASVGDRVTITCRASQGISSWLAWYQQKPEKAPKSLIYAASSLQSGVPSRFSGSGSGTDFTLTISSLQPEDFATYYCQQYNIYPYTFGQGTKLEIKSEAPRFLTRPLAFVVSEGKDATLSSQIVGDPPPEVTWEKDQQPITAGARFRLAQDGDVYRLEILDLQLSDSGQYVSRARNAIGEAFACVGLQVDAEG

EC50 (hNGF): 4.12 nM
B2: I6 (antibody)
heavy: not shown
light: DIQMTQSPSSLSASVGDRVTITCRASQSISNNLNWYQQKPGKAPKLLIYYTSRFHSGVPSRFSGSGSGTDFTFTISSLQPEDIATYYCQQEHTLPYTFGQGTKLEIKSGAPRFLTRPLAFVVSVGKDATLSSQIVGNPTPQVSWEKDQLPVTAGARFRLAQDGDLYRLKILDLTLSDSGQYVSRARNAIGEAFACVGLEVGAEA

EC50 (hNGF): 3.15 nM
B3: I7 (antibody)
heavy: not shown
light: B2 light with A119S, F120Y, T129S, T174Q

EC50 (hNGF): 4.13 nM
B4: I4 (antibody)
heavy: not shown
light: B2 light

EC50 (hNGF): 3.59 nM
B5: I5 (antibody)
heavy: not shown
light: B2 light

Kd (hB7H3 antigen protein): 13.1 nM
koff (hB7H3 antigen protein): 0.00206 s⁻¹
kon (hB7H3 antigen protein): 157000 M⁻¹ s⁻¹
EC50 [1]: 1.29 nM
B6: F0 (antibody, human IgG1, lambda)
heavy: not shown
light: DTVVTQEPSFSVSPGGTVTLTCGLSSGSVSTSHYPSWYQQTPGQAPRMLIYNTNTRSSGVPDRFSGSILGNKAALTITGAQADDESDYYCAIHVDRDIWVFGGGTKLTVLGQPKAAPSVTLFPPSSEELQANKATLVCLISDFYPGAVTVAWKADSSPVKAGVETTTPSKQSNNKYAASSYLSLTPEQWKSHRSYSCQVTHEGSTVEKTVAPTECS

EC50 (hTSLP): 3.23 nM
EC50 (hIL-5): 17.4 nM
B7: HJ-3 (bispecific antibody, human IgG1, kappa, L234A L235A)
heavy 1: not shown
light 1: DIQMTQSPSSVSASVGDRVTITCRASQDIANYLSWYQQKPGKSPKLLIYGTSNLEVGVPSRFSGSRSGTDFTLTISSLQPEDFATYYCLQDKEFPRTFGGGTKVEIKGGGGSSGAPRFLTRPLAFVVSVGKDATLSSQIVGNPTPQVSWEKDKQPVTAGARFRLAQDGDLYRLKILDLQLSDSGQYVSRARNAIGEAFACLGLQVDAEA
heavy 2: EVQLVQSGAEVKKPGSSVKVSCKASGYTFSNYLIEWVRQAPGQGLEWIGVIDPGVGDTNYNENFKGRATLTADKSTSTAYIELSSLRSEDTAVYYCAREDNTGTAFDYWGQGTTVTVSSASTKGPSVFPLAPSSKSTSGGTAALGCLVKDYFPEPVTVSWNSGALTSGVHTFPAVLQSSGLYSLSSVVTVPSSSLGTQTYICNVNHKPSNTKVDKKVEPKSCDKTHTCPPCPAPEAAGGPSVFLFPPKPKDTLMISRTPEVTCVVVDVSHEDPEVKFNWYVDGVEVHNAKTKPREEQYNSTYRVVSVLTVLHQDWLNGKEYKCKVSNKALPAPIEKTISKAKGQPREPQVCTLPPSREEMTKNQVSLSCAVKGFYPSDIAVEWESNGQPENNYKTTPPVLDSDGSFFLVSKLTVDKSRWQQGNVFSCSVMHEALHNHYTQKSLSLSPGKDYKDDDDK
light 2: SIVMTQTPLSLSVTPGQPASISCKASQSVSSDVTWYLQKPGQSPQLLIYYVSEHYTGVPDRFSGSGYGTDFTLKISRVEAEDVGVYYCQQHHRFPLTFGQGTKLEIKRTVAAPSVFIFPPSDEQLKSGTASVVCLLNNFYPREAKVQWKVDNALQSGNSQESVTEQDSKDSTYSLSSTLTLSKADYEKHKVYACEVTHQGLSSPVTKSFNRGEC

EC50 (hTSLP): 3.33 nM
EC50 (hIL-5): 18.7 nM
B8: HJ-8 (bispecific antibody, human IgG1, kappa, L234A L235A)
heavy 1: not shown
light 1: B7 light 1 with G108R, G109T, G110V, G111A, L123K, F125S, T144F, A160V, I194H
heavy 2: EVQLVQSGAEVKKPGSSVKVSCKASGYTFSNYLIEWVRQAPGQGLEWIGVIDPGVGDTNYNENFKGRATLTADKSTSTAYIELSSLRSEDTAVYYCAREDNTGTAFDYWGQGTTVTVSSASTKGPSVFPLAPSSKSTSGGTAALGCLVKDYFPEPVTVSWNSGALTSGVHTFPAVLQSSGLYSLSSVVTVPSSSLGTQTYICNVNHKPSNTKVDKKVEPKSCDKTHTCPPCPAPEAAGGPSVFLFPPKPKDTLMISRTPEVTCVVVDVSHEDPEVKFNWYVDGVEVHNAKTKPREEQYNSTYRVVSVLTVLHQDWLNGKEYKCKVSNKALPAPIEKTISKAKGQPREPQVCTLPPSREEMTKNQVSLSCAVKGFYPSDIAVEWESNGQPENNYKTTPPVLDSDGSFFLVSKLTVDKSRWQQGNVFSCSVMHEALHNHYTQKSLSLSPGK
light 2: B7 light 2

EC50 (hTSLP): 3.18 nM
EC50 (hIL-5): 10.9 nM
B9: HJ-9 (bispecific antibody, human IgG1, kappa, L234A L235A)
heavy 1: not shown
light 1: B7 light 1 with G108R, G109T, G110V, G111A, R121C, L123K, F125S, T144F, A160V, I194H
heavy 2: B8 heavy 2
light 2: B7 light 2

EC50 (hTSLP): 3.17 nM
EC50 (hIL-5): 20.8 nM
B10: HJ-10 (bispecific antibody, human IgG1, kappa, L234A L235A)
heavy 1: not shown
light 1: DIQMTQSPSSVSASVGDRVTITCRASQDIANYLSWYQQKPGKSPKLLIYGTSNLEVGVPSRFSGSRSGTDFTLTISSLQPEDFATYYCLQDKEFPRTFGGGTKVEIKRTVASSGAPRFLTRPKASVVSVGKDATLSCQIVGNPFPQVSWEKDKQPVTAGVRFRLAQDGDLYRLKILDLQLSDSGQYVCRARNAHGEAFACLGLQVDAEA
heavy 2: B8 heavy 2
light 2: B7 light 2

EC50 (hTSLP): 2.18 nM
EC50 (hIL-5): 17.7 nM
B11: HJ-7 (bispecific antibody, human IgG1, kappa, L234A L235A)
heavy 1: not shown
light 1: B10 light 1 with R108G, T109G, V110G, A111G
heavy 2: B8 heavy 2
light 2: B7 light 2

EC50 (hTSLP): 3 nM
EC50 (hIL-5): 9.46 nM
B12: HJ-11 (bispecific antibody, human IgG1, kappa, L234A L235A)
heavy 1: not shown
light 1: B10 light 1 with A115C
heavy 2: B8 heavy 2
light 2: B7 light 2

EC50 (hTSLP): 2.64 nM
EC50 (hIL-5): 16 nM
B13: HJ-5 (bispecific antibody, human IgG1, kappa, L234A L235A)
heavy 1: not shown
light 1: B7 light 1 with L123K, F125S, T144F, A160V, I194H
heavy 2: B8 heavy 2
light 2: B7 light 2

EC50 (hTSLP): 2.88 nM
EC50 (hIL-5): 37 nM
B14: HJ-6 (bispecific antibody, human IgG1, kappa, L234A L235A)
heavy 1: not shown
light 1: B7 light 1 with R121C, L123K, F125S, T144F, A160V, I194H
heavy 2: B8 heavy 2
light 2: B7 light 2

EC50 (hP40): 0.07 nM
B15: U2 (antibody)
heavy: not shown
light: DIQMTQSPSSLSASVGDRVTITCRASQGISSWLAWYQQKPEKAPKSLIYAASSLQSGVPSRFSGSGSGTDFTLTISSLQPEDFATYYCQQYNIYPYTFGQGTKLEIKSGAPRFLTRPKSYTVSVGKDASLSSQIVGNPTPQVSWEKDQQPVAAGARFRLAQDGDLYRLKILDLALGDSGQYVSRARNAIGEAFACVGLQVDAEA

EC50 (hNGF): 3.19 nM
B16: I2 (antibody)
heavy: not shown
light: DIQMTQSPSSLSASVGDRVTITCRASQSISNNLNWYQQKPGKAPKLLIYYTSRFHSGVPSRFSGSGSGTDFTFTISSLQPEDIATYYCQQEHTLPYTFGQGTKLEIKSGAPRFLTRPKSYTVSVGKDASLSSQIVGNPTPQVSWEKDQQPVAAGARFRLAQDGDLYRLKILDLALGDSGQYVSRARNAIGEAFACVGLQVDAEA

EC50 (hNGF): 2.99 nM
B17: I3 (antibody)
heavy: not shown
light: B2 light with Q148K, L149Q, T174Q, V196L, E199Q, G201D

EC50 (hP40): 0.07 nM
B18: U7 (antibody)
heavy: not shown
light: DIQMTQSPSSLSASVGDRVTITCRASQGISSWLAWYQQKPEKAPKSLIYAASSLQSGVPSRFSGSGSGTDFTLTISSLQPEDFATYYCQQYNIYPYTFGQGTKLEIKSGAPRFLTRPLAFVVSVGKDATLSSQIVGNPTPQVSWEKDQLPVTAGARFRLAQDGDLYRLKILDLTLSDSGQYVSRARNAIGEAFACVGLEVGAEA

EC50 (hP40): 0.06 nM
B19: U4 (antibody)
heavy: not shown
light: B18 light with Q148K, L149Q, T174Q, V196L, E199Q, G201D

EC50 (hP40): 0.11 nM
B20: U5 (antibody)
heavy: not shown
light: B18 light

EC50 (hP40): 0.03 nM
B21: U1 (antibody)
heavy: not shown
light: B15 light with K118L, S119A, Y120F, T121V, S129T

EC50 (hP40): 0.11 nM
B22: U6 (antibody)
heavy: not shown
light: B18 light

EC50 (hP40): 0.16 nM
B23: U8 (antibody)
heavy: not shown
light: B18 light with A119S, F120Y, T129S, T174Q
